From paper PMC9405658

Target: YadA (Yersinia adhesin A) displayed on E. coli BL21 DE3 cells (Yersinia enterocolitica) (UniProt P0C2W0)
Assay: fluorescence cell-binding assay (eluted FAM-aptamer)
Settings: 1.4 mM Mg2+; whole cells; authors say true Kd for pure YadA is probably higher; Kd: PBS 1x pH 7.4 (137 mM NaCl, 2.7 mM KCl, 8 mM Na2HPO4, 2 mM KH2PO4) + 1.4 mM MgCl2, 37 C, 75 min, 0-100 nM aptamer; sensor: inactivated cells in PBS 1x pH 7.

Chain of UniProt P0C2W0 (P0C2W0 whole entry): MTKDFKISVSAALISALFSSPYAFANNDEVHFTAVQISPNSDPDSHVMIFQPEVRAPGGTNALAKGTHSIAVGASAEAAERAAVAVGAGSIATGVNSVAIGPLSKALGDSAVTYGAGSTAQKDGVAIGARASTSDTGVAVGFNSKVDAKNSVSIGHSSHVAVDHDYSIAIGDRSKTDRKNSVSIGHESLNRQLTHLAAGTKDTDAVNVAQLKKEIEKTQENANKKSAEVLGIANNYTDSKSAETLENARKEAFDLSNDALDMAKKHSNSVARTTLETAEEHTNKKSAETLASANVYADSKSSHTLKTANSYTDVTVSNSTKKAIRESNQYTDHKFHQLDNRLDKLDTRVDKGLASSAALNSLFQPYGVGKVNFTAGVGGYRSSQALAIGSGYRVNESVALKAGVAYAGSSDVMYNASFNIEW

Sequence: ATCCAGAGTGACGCAGCATGACAGACGGGAGAGACACGACGGGGGCGGGGAGTGAGAAGCGCGCGCTGAATGTCGTTGGTGGCCC [Apt1 (FAM)]
- Kd: 0.011 µM
